Consider eleven sequences from the DeepSol protein solubility set.

The data set can be described thus: soluble on expression in E. coli; label from the status in PepcDB or PDB records.
Regarding “SLSIYSFSQITRSLFLSNGVAANDKLLLSSNRITAIVNASVEVVNVFFEGIQYIKVPVTDARDSRLYDFFDPIADLIHTIDMRQGRTLLHCMAGVSRSASLCLAYLMKYHSMSLLDAHTWTKSRRPIIRPNNGFWEQLINYEFKLFNN”, the “soluble on expression in E. coli” value is on record as “not soluble”.
With “SLTPLSAITVRSMEGPPTVQQQSPSVIRQSPTQRRKTSTTSSTSRAPPPTNPDASSSSSSFAVPTIHFKESPFYKIQRLIPELVMNVEVTGGRGMCSAKFKLSKADYNLLSNPNSKHRLYLFSGMINPLGSRGNEPIQFPFPNELRCNNVQIKDNIRGFKSKPGTAKPADLTPHLKPYTQQNNVELIYAFTTKEYKLFGYIVEMITPEQLLEKVLQHPKIIKQATLLYLKKTLREDEEMGLTTTSTIMSLQCPISYTRMKYPSKSINCKHLQCFDALWFLHSQLQIPTWQCPVCQIDIALENLAISEFVDDILQNCQKNVEQVELTSDGKWTAILEDDDDSDSDSNDGSRSPEKGTLGEGAAALEHHHHHH”, the “soluble on expression in E. coli” value is “soluble”.
“SLYIEMVDETGQVSKEMLQQTQEILEFAAQKLGKEDKEMAVTFVTNERSHELNLEYRDTDRPTDVISLEYKPELEIAFDEEDLLENPELAEMMSEFDAYIGELFISIDKAHEQAEEYGHSFEREMGFLAVHGFLHINGYDHYTPEEEAEMFGLQEEILTAYGLTRQ”: the “soluble on expression in E. coli” value is “soluble”.
Consider “SMCPGCGCGRIIHLGLGTEQVEAYVREHFPHARVDRMDRDTTARRGGHARILRKVAERQTDILIGTQMVAKGHDFPGITLVGILSVESTLNIPDYRSAERTFQLVTQLIGRAGRGDDPGRVLIQSLNP”, for which the “soluble on expression in E. coli” value was “not soluble”.
Take “SMEEKLENEPDFQYIPEKAPLDSVHQDDHSLRESMIQLAEGLITGTVLTQFDQLYRKKPGMTMSCAKLPQNISKNRYRDISPYDATRVILKGNEDYINANYINMEIPSSSIINQYIACQGPLPHTCTDFWQMTWEQGSSMVVMLTTQVERGRVKCHQYWPEPTGSSSYGCYQVTCHSEEGNTAYIFRKMTLFNQEKNESRPLTQIQYIAWPDHGVPDDSSDFLDFVCHVRNKRAGKEEPVVVHCSAGIGRTGVLITMETAMCLIECNQPVYPLDIVRTMRDQRAMMIQTPSQYRFVCEAILKVYEEGFVKPLTTSTNKLT”: the “soluble on expression in E. coli” value is given as “soluble”.
As to “SMEVARAARLAQIFKEICDGIISYKDSSRQALAAPLLNLPPKKKNADYYEKISDPLDLITIEKQILTGYYKTVEAFDADMLKVFRNAEKYYGRKSPVGRDVCRLRKAYYNARHEASAQIDEIVGET”, the “soluble on expression in E. coli” value is listed as “soluble”.
With “SMFNNELMADVHFVVGPPGATRTVPAHKYVLAVGSSVFYAMFYGDLAEVKSEIHIPDVEPAAFLILLKYMYSDEIDLEADTVLATLYAAKKYIVPALAKACVNFLETSL”, the “soluble on expression in E. coli” value was “soluble”.
On to “SMRPQPGDGERRYREASARKKIRLDRKYIVSCKQTEVPLSVPWDPSNQVYLSYNNVSSLKMLVAKDNWVLSSEISQVRLYTLEDDKFLSFHMEMVVHVDAAQAFLLLSDLRQRPEWDKHYRSVELVQQVDEDDAIYHVTSPALGGHTKPQDFVILASRRKPCDNGDPYVIALRSVTLPTHRETPEYRRGETLCSGFCLWREGDQLTKVSYYNQATPGVLNYVTTNVAGLSSEFYTTFKACEQFLLDNRNDLAPSLQTL”, for which the “soluble on expression in E. coli” value is “soluble”.
As for “SMRYRQITIPRGKDGFGFTICCDSPVRVQAVDSGGPAERAGLQQLDTVLQLNERPVEHWKCVELAHEIRSCPSEIILLVWRMVPQVKPGPD”, the “soluble on expression in E. coli” value was “soluble”.
The result for “SNAEERLKMSTTTSTQDSGLLKVLLPPFEKKNNVKVDVIAVGTGQALKLGEAGDVDVVFVHARKLEDKFVADGFGVNRKDVMYNDFVIVGPKNDPAGIAKAKTAAEALKLLATKGATFISRGDKSGTHTKELDLWKSAGVDPKGNWYVEAGQGMGPVITMATERRAYTLTDRGTYNAFKGAKTDLVILFQGEKGLFNPYGIMAVNPKKFPHVKYDLAMKLIDYVTGPEGLKIISDY” reads “soluble”; that for “SNAKNRLGTKALNFTYTLDSGVKGTLYQFPAEYTLLFINNPGCHACAEMIEGLKASPVINGFTAAKKLKVLSIYPDEELDEWKKHRNDFAKEWTNGYDKELVIKNKNLYDLRAIPTLYLLDKNKTVLLKDATLQKVEQYLAE”, “soluble”.
